Reference: patent US9969998B2, “Compositions of adenosine deaminase-2 (ADA2), variants thereof and methods of using same” (Halozyme, Inc., priority 2014, dated 2018)
Where a chain is given by its changes, count along the chain named. Names and notes keep the numbering of the source.

B1: R23E: ADA2 variant SEQ ID NO:30 (protein)
chain: IDETRAHLLLKEKMMRLGGELVLNTKEELANERLMTLKIAEMKEAMRTLIFPPSMHFFQAKHLIERSQVFNILRMMPKGAALHLHDIGIVTMDWLVRNVTYRPHCHICFTPRGIMQFRFAHPTPRPSEKCSKWILLEDYRKRVQNVTEFDDSLLRNFTLVTQHPEVIYTNQNVVWSKFETIFFTISGLIHYAPVFRDYVFRSMQEFYEDNVLYMEIRARLLPVYELSGEHHDEEWSVKTYQEVAQKFVETHPEFIGIKIIYSDHRSKDVAVIAESIRMAMGLRIKFPTVVAGFDLVGHEDTGHSLHDYKEALMIPAKDGVKLPYFFHAGETDWQGTSIDRNILDALMLNTTRIGHGFALSKHPAVRTYSWKKDIPIEVCPISNQVLKLVSDLRNHPVATLMATGHPMVISSDDPAMFGAKGLSYDFYEVFMGIGGMKADLRTLKQLAMNSIKYSTLLESEKNTFMEIWKKRWDKFIADVATK
modifications: human ADA2 R20E, mature numbering
B2: PEG-K374D: rHuADA2-K374D (SEQ ID NO:20) PEGylated on surface exposed lysines with linear PEG-20K (conjugate)
chain: B1 chain with E20R, K371D
modifications: linear PEG-20K on surface lysines; human ADA2 K371D, mature numbering
B3: WT ADA2: wild type recombinant human adenosine deaminase 2 with FLAG tag, mature ADA2 SEQ ID NO:5 (protein, listed as Homo sapiens)
chain: B1 chain with E20R
modifications: FLAG tag; ADA2 mature protein
B4: S265N: ADA2 variant SEQ ID NO:54 (protein)
chain: B1 chain with E20R, S262N
modifications: human ADA2 S262N, mature numbering
B5: K374E: ADA2 variant SEQ ID NO:21 (protein)
chain: B1 chain with E20R, K371E
modifications: human ADA2 K371E, mature numbering
B6: K374D: ADA2 variant SEQ ID NO:20 (protein)
chain: B1 chain with E20R, K371D
modifications: human ADA2 K371D, mature numbering

Tests used:
[1] = Adenosine deaminase (ADA) enzymatic activity assay kit; format: biochemical; conditions: for % of WT adenosine deaminase activity: Table 23; for % activity vs. WT: relative to rHuADA2 WT (Table 21); for Adenosine deaminase activity mU/ml / Adenosine deaminase activity ΔA/min / % of WT activity: purified protein at 5 μg/mL; for % of WT activity: compared to WT-ADA2
[2] = Thermal stability by differential scanning fluorimetry (DSF); format: physicochemical; conditions: for Tm, melting temperature by DSF: 0.1-1 mg/mL protein
How it was run: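 Tm was taken as the midpoint of the unfolding transition. WT and variant rHuADA2, PEGylated or not, at 0.1-1 mg/mL were run in triplicate with ROX thermal shift dye, ramped 25 to 99° C at 0.05° C/s. Fluorescence read at 580 nm excitation and 623 nm emission.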

[3] = Spectrophotometric adenosine deaminase assay at varying pH (pH optimum); format: biochemical; conditions: for pH optimum (highest deaminase activity): pH 5.5 to 8, 5 mM ADO
Procedure: Adenosine deaminase activity of rHuADA2 and variants at varying pH were assessed to determine the pH optimum of each. The adenosine deaminase activity was determined spectrophotometrically by direct measurement of changes in adenosine absorbance. […] During the deamination reaction, the absorbance of ADO decreases while that of INO increases with time. Since the dynamic changes in absorbance make it difficult to monitor activity at a single wavelength, the relative ADO activity was determined as a ratio of the ADO peak to isobestic point (i.e. the wavelength where ADO and INO have the same extinction coefficient). The isobestic point, which is 253 nm, remains unchanged and is concentration independent, so that it is the reference point to correct for volume or intensity discrepancies.
To construct the standard curve for ADO and INO, a series of solution mixtures in 0.001% Tween-20 containing different concentrations of ADO and INO were prepared. The total concentration of ADO and INO mix was 50 μM, in 1×PBS (10 mM phosphate, 137 mM NaCl, 2.7 mM KCl), pH 7.4. The samples were scanned with the wavelengths between 220 nm and 300 nm to determine the isosbestic point, where all spectra cross.
For performing the spectrophotometric adenosine deaminase assay of ADA2 and variants, a 2× solution containing 10 mM ADO in 100 mM potassium phosphate buffer (KPB), 0.1% Tween-20 at different pHs (i.e. 5.5, 6, 6.5, 6.75, 7, 7.25, 7.4, 7.75 and 8) were prepared. A separate 2× solution containing 2 μg/mL WT rHuADA2 or variants were prepared in the same 100 mM potassium phosphate buffer (KPB), 0.1% Tween-20 at the respective pH (i.e. 5.5, 6, 6.5, 6.75, 7, 7.25, 7.4, 7.75 and 8). An equal volume of the ADO solution and the ADA2 solution (wildtype or variants) were mixed to initiate reaction. At each time point (i.e. 1, 3, 5, 7, 9, 11, 13 and 15 min), a small aliquot (4 μl) was removed and diluted 50 times by adding to 196 μl 1×PBS, pH 7.4. The diluted samples were further diluted 2 fold (in duplicates) by adding 85 μl samples to 85 μl 1×PBS in a UV-transparent half area plate. The absorbance at 253 nm and 261 nm were measured of each diluted sample.
Adenosine concentration was determined using the A261/A253 ratio and the standard curve. Adenosine deaminase activity was measured by negative change in ADO concentration per min×100.

[4] = PEGylated and non-PEGylated forms (Table 23)
[5] = protein diluted to 5 μg/mL, serially diluted 2 fold (Table 21)

| Molecule | enzymatic activity relative to WT rHuADA2 [1] | adenosine deaminase activity mU/mL [1, 4] [mU/mL] | % of WT adenosine deaminase activity [1] [%] | adenosine deaminase activity mU/mL [1, 5] [mU/mL] | ΔA/min, adenosine deaminase activity [1, 5] | % activity vs. WT [1] [%] | Tm, melting temperature by DSF [2] [°C] | Adenosine deaminase activity Δ [ADO]/min × (−100) ([3]; pH 5.5) | Adenosine deaminase activity Δ [ADO]/min × (−100) ([3]; pH 6) | Adenosine deaminase activity Δ [ADO]/min × (−100) ([3]; pH 6.5) | Adenosine deaminase activity Δ [ADO]/min × (−100) ([3]; pH 6.75) | Adenosine deaminase activity Δ [ADO]/min × (−100) ([3]; pH 7) | Adenosine deaminase activity Δ [ADO]/min × (−100) ([3]; pH 7.25) | Adenosine deaminase activity Δ [ADO]/min × (−100) ([3]; pH 7.4) | Adenosine deaminase activity Δ [ADO]/min × (−100) ([3]; pH 7.75) | Adenosine deaminase activity Δ [ADO]/min × (−100) ([3]; pH 8) | Adenosine deaminase activity mU/ml [1] [mU/ml] | Adenosine deaminase activity ΔA/min [1] | % of WT activity [1] [%] | pH optimum (highest deaminase activity) [3] | also measured |
| --- | --- | --- | --- | --- | --- | --- | --- | --- | --- | --- | --- | --- | --- | --- | --- | --- | --- | --- | --- | --- | --- |
| B1 | improved enzymatic activity | 129.9 | 106.8 | 161.6 | 70.2 | 207.1 | 65.2 | 22.84 | 25.64 | 29.18 | 29.47 | 28.53 | 21.71 | 19.37 | 7.41 | 5.33 | – | – | – | – | – |
| B2 | – | 142 | 116.8 | – | – | – | 67.81 | – | – | – | – | – | – | – | – | – | – | – | – | – | – |
| B3 | – | 121.6 | 100 | 78 | 33.9 | 100 | 67.1 | 21.11 | 22.06 | 33.77 | 29.76 | 28.70 | 24.47 | 21.77 | 6.65 | 3.58 | 78 | 33.9 ΔA/min | 100 | approximately 6.5 | – |
| B4 | – | – | – | – | – | – | 60.8 | 24.61 | 31.59 | 41.30 | 44.46 | 45.16 | 50.99 | 45.81 | 25.16 | 3.70 | 164.8 | 71.7 ΔA/min | 211 | 7.25 | – |
| B5 | improved enzymatic activity | – | – | 313.8 | 136.5 | 402.3 | 69.7 | 15.76 | 19.15 | 27.09 | 25.72 | 24.63 | 21.88 | 18.32 | 5.98 | 4.25 | – | – | – | – | Tm higher than WT ADA2 [2]: 1.4 °C |
| B6 | improved enzymatic activity | 162.9 | 134 | 269.8 | 117.3 | 345.9 | 66.8 | 12.19 | 10.68 | 14.22 | 12.90 | 13.22 | 12.86 | 10.55 | 1.55 | 3.46 | – | – | – | – | – |
